The values below come from patent US20070110756A1, “Method for modulating P53 activity via methylation” (priority 2005, published 2007).

Series [1] has as its system methylated Lys372-p53 in 293F cells. Put plainly: immunoprecipitation with anti-p53-Lys372me and p53 western blot in 293F cells. The following applies: Adr-treated vs untreated. The series is classed as cell-based. The procedure: The in vivo methylation of p53 at lysine 372 under conditions in which the intracellular concentration of Set9 was unaltered was also determined. 293F cells were treated with adriamycine (Adr), an agent that induces DNA damage resulting in the activation of a p53-responsive pathway. Cell extracts prepared from untreated and Adr-treated cells were then compared for total amounts of p53 protein using monoclonal p53 antibody. […] Both extracts were also subjected to immunoprecipitation with anti-p53-Lys372me antibodies followed by western blot analysis with p53-specific antibody.
In general terms: In western blotting, separated proteins are transferred to a membrane and probed.

The subject of the next series is U2OS cells. The series can be described thus: Annexin V apoptotic staining after DNA damage. In kind it is cell-based. From the text:
This was directly tested by measuring the p53-dependent apoptotic response induced by DNA damage. […] The treatment of Set9-overexpressing cells with Adr further increased the Annexin V staining. […] Furthermore, Set9-mediated regulation of cell cycle and apoptosis was p53-dependent, because in the absence of p53, transfected Set9 was unable to induce p21 gene expression in H1299 (FIG. 4) or apoptosis in Saos-2 cells in response to DNA damage.

Series [2] relates to methylated p53 bound to the p21 promoter in U2OS cells. The series can be described thus: ChIP assay of methylated p53 at the p21 promoter. The series is classed as cell-based. The following applies: 0.5 μM of Adr, time course. The procedure: U2OS and USOS Set9 siRNA cells were treated with 0.5 μM of Adr and collected at the indicated time points for a CHIP assay performed using anti-p53-Lys372me antibody. The amounts of precipitated p21 promoter were determined by quantitative RT-PCR.
It was observed that p53 methylation likely precedes acetylation. Therefore, it was expected that p53 methylation must occur at very early times after DNA damage. […] At the indicated time periods, cells were harvested, and DNA-protein complexes were cross-linked and subjected to chromatin immunoprecipitation (ChIP) analysis, initially using anti-p53-Lys372me antibodies. To increase the specificity of ChIP, the anti-p53-Lys372me immunoprecipitates were eluted from the beads with 1% SDS, diluted with immunoprecipitation buffer and then subjected to a second round of immunoprecipitation using anti-p53 antibody.
ChIP assay on U2OS and U2OS cells expressing siRNA-Set9 was performed using established methods (Barlev, et al. (2001) supra). Briefly, cells were cross-linked with 1% formaldehyde, neutralized with 0.125 M glycine and harvested by scraping. The chromatin fraction was prepared by incubating the cells in lysis buffer (10 mM Tris pH 8.0, 200 mM NaCl, 10 mM EDTA, 0.5 mM EGTA, 1 mM PMSF). The insoluble fraction was sonicated and subjected to immunoprecipitation with anti-p53-Lys372me serum. […]

In a further series the test system is p53 in U2OS cells. Put plainly: p53 Lys372 methylation and total p53 levels in U2OS cells. In kind it is cell-based.
For series [3], the system named is p21 gene expression in U2OS cells. The series can be described thus: p21 gene expression by quantitative real-time PCR. In kind it is cell-based, human. As to conditions: normalized to GAPDH. As to the method:
U2OS cells were stably transfected with FLAG-Set9 wild-type, FLAG-Set9 mutant or siRNA against Set9. Non-transfected cells served as control. Cells were mock-treated, or treated with 0.3 μM of 5-fluoro-uracil (5-FU) or adriamycine (Adr) as indicated. p21 (FIG. 3A), BAX (FIG. 3B) and MDM2 (FIG. 3C) gene expression was analyzed by quantitative real-time PCR using primers specific for the coding region. Shown are the relative values normalized to GAPDH signal.
Total RNA was extracted using the TRI reagent (INVITROGEN) according to the manufacturer's instructions. First-strand complementary DNA was synthesized using READY-TO-GO You-Prime First-Strand Beads (Amersham Biosciences, Piscataway, N.J.).
Real-time PCR was performed with the DNA ENGINE OPTICON 2 System (MJ Research, Waltham, Mass.) according to the manufacturer's instructions. The primers for human p21 (Cip1/WAF1′) and GAPDH (GENBANK accession numbers NM_000389 and NP_002037, respectively) were designed using the Primer3 program. […] Fluorescence was measured at the end of the elongation phase at 79° C. Expression levels were calculated as a ratio between p21 and GAPDH signals. […]

Series [4] deals with T1, Set9 construct composed of residues 52-366 (UniProt Q8WTS6 52-366).
T1 sequence (looked up): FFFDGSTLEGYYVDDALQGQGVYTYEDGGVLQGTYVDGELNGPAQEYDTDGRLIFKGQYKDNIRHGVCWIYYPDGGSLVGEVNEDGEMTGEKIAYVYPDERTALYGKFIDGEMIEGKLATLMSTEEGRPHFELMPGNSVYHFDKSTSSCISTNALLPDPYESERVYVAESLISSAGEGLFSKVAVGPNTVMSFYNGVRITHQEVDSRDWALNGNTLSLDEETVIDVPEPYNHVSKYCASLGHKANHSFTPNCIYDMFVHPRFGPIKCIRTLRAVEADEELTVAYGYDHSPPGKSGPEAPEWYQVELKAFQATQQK
The series can be described thus: cell-based or functional assay.

`COc1cccc2c1C(=O)c1c(O)c3c(c(O)c1C2=O)C[C@@](O)(C(=O)CO)C[C@@H]3O[C@H]1C[C@H](N)[C@H](O)[C@H](C)O1` [Adr, adriamycine]: the “intracellular concentration of methylated Lys372-p53 protein” value in series [1] is on record as “increased the intracellular concentration of methylated Lys372-p53 protein”. The “levels of intracellular p53” value in series [1] (monoclonal p53 antibody) is reported as “did not increase the levels of intracellular p53”. Besides, the “number of cells positively stained for Annexin V” value with U2OS cells is reported as “increased the number of cells positively stained for Annexin V”. The “amount of methylated p53 bound to the p21 promoter” value in series [2] was “increased as early as 1.5 hours after DNA damage”.

B1: 5′-gat ccg cac ctg gac gat gac gga tta cct tcc tgt caG TAATCCGTCATCGTCCAGGTG Ctt ttt g-3′ (nucleic acid)
chain: GATCCGCACCTGGACGATGACGGATTACCTTCCTGTCAGTAATCCGTCATCGTCCAGGTGCTTTTTG
modifications: expressed or natural sequence
notes: stem-loop siRNA targeting SET9, expressed from lentiviral pLSL-GFP vector
As for B1, in the series on p53 in U2OS cells, the “total levels of p53” value is listed as “decreased the total levels of p53”. In the series on p53 in U2OS cells (upon Adr treatment), the “Lys372 methylation of p53” value is given as “decreased Lys372 methylation of p53”. Also, the “p21 expression upon DNA damage” value in series [3] is listed as “impaired p21 expression upon DNA damage”. In addition, in series [2], the “amount of methylated p53 bound to the p21 promoter” value was “did not exhibit a significant increase in methylated p53 at the p21 promoter”.

B2: wild-type p53 20-mer (peptide)
peptide: LKSKKGQSTSRHKKLMFKTY
Take B2: in series [4], the “enzymatic activity, methyltransferase assays with 3H-labeled S-adenosyl-L-methionine (AdoMet)” value worked out at 6 fold.
